From US9327008B2, “Cell-permeant peptide-based inhibitor of kinases” (Purdue Research Foundation, priority 2008, dated 2016)

Legend:
Type in all cases: biochemical
MAPK1 = target: T1, MAPK1 (Homo sapiens, UniProt P27361); test: Millipore radiometric kinase activity assay, MAPK1 (h)
T1 construct: purchased Millipore (radiometric assay service)
Description: (§1) A commercial radiometric assay service (Millipore, Billerica, Mass.) was used to test the specificity and potency of peptides containing a coupled transduction domain and therapeutic domain, hereinafter “complete peptides”). In these assays, if the kinase is not inhibited by an inhibitor peptide, a positively charged substrate is phosphorylated with a radiolabeled phosphate group from an ATP.
(§2) In a final reaction volume of 25 μL, MAPK1 (h) (5-10 mU) is incubated with 25 mM Tris pH 7.5, 0.02 mM EGTA, 250 μM peptide, 10 mM MgAcetate and [γ-^33P-ATP] (specific activity approx. 500 cpm/pmol, concentration as required). The reaction is initiated by the addition of the MgATP mix. After incubation for 40 minutes at room temperature, the reaction is stopped by the addition of 5 μL of a 3% phosphoric acid solution. 10 μL of the reaction is then spotted onto a P30 filtermat and washed three times for 5 minutes in 75 mM phosphoric acid and once in methanol prior to drying and scintillation counting.
(§3) IC50 values for inhibitor peptides were determined using Millipore's IC50Profiler Express service. The IC50 value was estimated from a 10-point curve of one-half log dilutions. For peptides tested for specificity, the concentration of the peptides that inhibited approximately 95% of MK2 activity was chosen to profile against a battery of kinases related to MK2, cell viability, or human disease from MilliporeKinaseProfiler service. In both assays, compounds were supplied in dimethylsulfoxide (DMSO). Every kinase activity measurement was conducted in duplicate.
(§4) Therapeutic inhibitor peptides were assayed for activity against human kinases related to MK2, cell viability, or human disease. The assays were performed using concentrations of therapeutic inhibitor peptides that yielded 2% to 8% of normal MK2 activity. Error is reported as the standard deviation between 2 samples, and “c” is rat AMPK whereas all other kinases used are human kinases.

PKG1β = target: T2, PKG1β (Homo sapiens, UniProt Q13976); test: Millipore radiometric kinase activity assay, PKG1β (h)
T2 construct: purchased Millipore (radiometric assay service)
T2 sequence (Q13976 1-686 isoform Q13976-2): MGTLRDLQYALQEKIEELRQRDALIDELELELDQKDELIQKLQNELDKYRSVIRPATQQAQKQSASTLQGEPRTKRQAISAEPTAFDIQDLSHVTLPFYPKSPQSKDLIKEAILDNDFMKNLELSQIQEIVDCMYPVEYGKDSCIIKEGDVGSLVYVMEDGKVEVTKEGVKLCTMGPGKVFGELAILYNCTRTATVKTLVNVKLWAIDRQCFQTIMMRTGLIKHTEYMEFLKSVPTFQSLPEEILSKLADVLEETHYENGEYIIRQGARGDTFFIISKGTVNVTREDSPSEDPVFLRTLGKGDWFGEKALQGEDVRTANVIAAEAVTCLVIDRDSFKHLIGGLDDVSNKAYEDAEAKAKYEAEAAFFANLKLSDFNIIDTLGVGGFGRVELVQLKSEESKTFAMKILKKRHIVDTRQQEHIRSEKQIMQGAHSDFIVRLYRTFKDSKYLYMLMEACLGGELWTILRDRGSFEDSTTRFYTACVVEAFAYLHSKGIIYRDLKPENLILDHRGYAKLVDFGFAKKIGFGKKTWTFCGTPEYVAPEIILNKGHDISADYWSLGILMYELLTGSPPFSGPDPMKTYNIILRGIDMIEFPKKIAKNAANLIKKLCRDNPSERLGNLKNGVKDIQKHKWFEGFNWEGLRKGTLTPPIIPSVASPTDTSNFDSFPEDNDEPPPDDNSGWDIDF
Description: as §1
as §2, with “μL, PKG1β” for “μL, MAPK1”, “with 8” for “with 25”, “mM MOPS” for “mM Tris”, “pH 7.0, 0.2” for “pH 7.5, 0.02”, “mM EDTA, 10” for “mM EGTA, 250”, “μM cGMP, 200 μM […] [SEQ ID NO: 62],” for “μM peptide,”
as §3, §4

DYRK2 = target: T3, DYRK2 (Homo sapiens, UniProt Q92630); test: Millipore radiometric kinase activity assay, DYRK2 (h)
T3 construct: purchased Millipore (assay service)
T3 sequence (Q92630 1-601): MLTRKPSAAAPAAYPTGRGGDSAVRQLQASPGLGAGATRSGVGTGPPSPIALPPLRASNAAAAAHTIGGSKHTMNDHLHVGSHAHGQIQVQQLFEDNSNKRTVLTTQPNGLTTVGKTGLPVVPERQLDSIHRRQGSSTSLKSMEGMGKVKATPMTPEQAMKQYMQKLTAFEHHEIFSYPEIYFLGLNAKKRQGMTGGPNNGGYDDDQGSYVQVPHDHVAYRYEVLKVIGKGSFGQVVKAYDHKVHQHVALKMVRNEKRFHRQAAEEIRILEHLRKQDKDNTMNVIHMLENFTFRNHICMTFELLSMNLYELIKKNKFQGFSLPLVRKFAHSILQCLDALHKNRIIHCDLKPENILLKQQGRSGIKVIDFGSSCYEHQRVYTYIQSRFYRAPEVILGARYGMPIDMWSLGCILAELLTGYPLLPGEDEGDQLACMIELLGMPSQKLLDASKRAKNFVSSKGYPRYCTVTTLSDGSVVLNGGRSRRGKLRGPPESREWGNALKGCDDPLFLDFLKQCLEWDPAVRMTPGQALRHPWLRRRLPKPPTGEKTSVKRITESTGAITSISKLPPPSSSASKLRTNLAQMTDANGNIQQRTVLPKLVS
Description: as §1
In a final reaction volume of 25 μL, DYRK2 (h) (5-10 mU) is incubated with 8 mM MOPS pH 7.0, 0.2 mM EDTA, 2 mg/mL casein, 10 mM MgAcetate and [γ-^33P-ATP] (specific activity approx. 500 cpm/pmol, concentration as required). The reaction is initiated by the addition of the MgATP mix. After incubation for 40 minutes at room temperature, the reaction is stopped by the addition of 5 μL, of a 3% phosphoric acid solution. 10 μL of the reaction is then spotted onto a P30 filtermat and washed three times for 5 minutes in 75 mM phosphoric acid and once in methanol prior to drying and scintillation counting.
as §3, §4

T1 sequence (P27361 whole entry): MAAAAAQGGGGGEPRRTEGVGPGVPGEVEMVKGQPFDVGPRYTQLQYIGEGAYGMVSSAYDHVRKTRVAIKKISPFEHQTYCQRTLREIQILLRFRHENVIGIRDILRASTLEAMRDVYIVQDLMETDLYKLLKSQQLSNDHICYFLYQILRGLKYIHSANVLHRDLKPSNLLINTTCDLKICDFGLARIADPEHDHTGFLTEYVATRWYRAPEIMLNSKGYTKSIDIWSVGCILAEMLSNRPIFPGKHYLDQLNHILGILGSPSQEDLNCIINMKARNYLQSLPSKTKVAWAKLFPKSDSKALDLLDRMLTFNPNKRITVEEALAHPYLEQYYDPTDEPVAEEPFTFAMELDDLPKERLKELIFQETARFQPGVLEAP

| Sequence | MAPK1 Kinase Activity (%) (+SD %) (MAPK1; peptide 30 μM) | MAPK1 Kinase Activity (%) (+SD %) (MAPK1; peptide 100 μM) | PKG1β Kinase Activity (%) (+SD %) (PKG1β; peptide 30 μM) | PKG1β Kinase Activity (%) (+SD %) (PKG1β; peptide 100 μM) | DYRK2 Kinase Activity (%) (+SD %) (DYRK2; peptide 30 μM) | DYRK2 Kinase Activity (%) (+SD %) (DYRK2; peptide 100 μM) |
| --- | --- | --- | --- | --- | --- | --- |
| WLRRIKAWLRRIKALNRQLGVAA | 121 (5) % | 104 (3) % | 15 (4) % | 15 (1) % | 93 (8) % | −11 (1) % |
| KAFAKLAARLYRKALARQLGVAA |  | 108 (1) % |  | 24 (5) % |  | −10 (0) % |
